Laboratory results as given in the supplement of paper PMC11246515.
± gives the standard deviation of the averaged measurements.

Assay: total protein half-life in vivo (active degradation + dilution); higher = more stable protein
[1] = E. coli NCM3722 delta-clpP delta-lon delta-hslV, growth: N-lim chemostat, doubling time 6 h
[2] = E. coli NCM3722 delta-clpP, growth: N-lim chemostat, doubling time 6 h
[3] = E. coli NCM3722 delta-hslV, growth: N-lim chemostat, doubling time 6 h
[4] = E. coli NCM3722 delta-lon, growth: N-lim chemostat, doubling time 6 h
[5] = E. coli NCM3722 delta-smpB, growth: N-lim chemostat, doubling time 6 h
[6] = wild type E. coli NCM3722, growth: C-lim chemostat, doubling time 3 h
[7] = wild type E. coli NCM3722, growth: C-lim chemostat, doubling time 6 h
[8] = wild type E. coli NCM3722, growth: C-lim chemostat, doubling time 12 h
[9] = wild type E. coli NCM3722, growth: N-lim chemostat, doubling time 6 h
[10] = wild type E. coli NCM3722, growth: N-lim chemostat, doubling time 12 h
[11] = wild type E. coli NCM3722, growth: P-lim chemostat, doubling time 6 h
[12] = wild type E. coli NCM3722, growth: P-lim chemostat, doubling time 12 h

Sequence	total protein half-life in vivo [1]	total protein half-life in vivo [2]	total protein half-life in vivo [3]	total protein half-life in vivo [4]	total protein half-life in vivo [5]	total protein half-life in vivo [6]	total protein half-life in vivo [7]	total protein half-life in vivo [8]	total protein half-life in vivo [9]	total protein half-life in vivo [10]	total protein half-life in vivo [11]	total protein half-life in vivo [12]
MLVSSNVTMQFGSKPLFENISVKFGGGNRYGLIGANGSGKSTFMKILGGDLEPTLGNVSLDPNERIGKLRQDQFAFEEFTVLDTVIMGHKELWEVKQERDRIYALPEMSEEDGYKVADLEVKYGEMDGYSAEARAGELLLGVGIPVEQHYGPMSEVAPGWKLRVLLAQALFADPDILLLDEPTNNLDIDTIRWLEQVLNERDSTMIIISHDRHFLNMVCTHMADLDYGELRVYPGNYDEYMTAATQARERLLADNAKKKAQIAELQSFVSRFSANASKSRQATSRARQIDKIKLEEVKASSRQNPFIRFEQDKKLFRNALEVEGLTKGFDNGPLFKNLNLLLEVGEKLAVLGTNGVGKSTLLKTLVGDLQPDSGTVKWSENARIGYYAQDHEYEFENDLTVFEWMSQWKQEGDDEQAVRSILGRLLFSQDDIKKPAKVLSGGEKGRMLFGKLMMQKPNILIMDEPTNHLDMESIESLNMALELYQGTLIFVSHDREFVSSLATRILEITPERVIDFSGNYEDYLRSKGIE [P0A9U3]	5.14 ± 0.66 h	4.36 ± 0.29 h	4.35 ± 0.22 h	4.4 ± 0.35 h	4.27 ± 0.19 h	2.9 ± 0.28 h	5.571 ± 0.029 h	10.1 ± 0.12 h	4.218 ± 0.03 h	6.54 ± 0.14 h	5.08 ± 0.85 h	8.98 ± 1.4 h
MLVVELIIVLLAIFLGARLGGIGIGFAGGLGVLVLAAIGVKPGNIPFDVISIIMAVIAAISAMQVAGGLDYLVHQTEKLLRRNPKYITILAPIVTYFLTIFAGTGNISLATLPVIAEVAKEQGVKPCRPLSTAVVSAQIAITASPISAAVVYMSSVMEGHGISYLHLLSVVIPSTLLAVLVMSFLVTMLFNSKLSDDPIYRKRLEEGLVELRGEKQIEIKSGAKTSVWLFLLGVVGVVIYAIINSPSMGLVEKPLMNTTNAILIIMLSVATLTTVICKVDTDNILNSSTFKAGMSACICILGVAWLGDTFVSNNIDWIKDTAGEVIQGHPWLLAVIFFFASALLYSQAATAKALMPMALALNVSPLTAVASFAAVSGLFILPTYPTLVAAVQMDDTGTTRIGKFVFNHPFFIPGTLGVALAVCFGFVLGSFML [P0ABN5]	5.71 h	6.38 ± 0.28 h			5.933 ± 0.026 h	> 4 h	6.25 h				6.8 ± 0.54 h	12.4 ± 0.89 h
MLVYWLDIVGTAVFAISGVLLAGKLRMDPFGVLVLGVVTAVGGGTIRDMALDHGPVFWVKDPTDLVVAMVTSMLTIVLVRQPRRLPKWMLPVLDAVGLAVFVGIGVNKAFNAEAGPLIAVCMGVITGVGGGIIRDVLAREIPMILRTEIYATACIIGGIVHATAYYTFSVPLETASMMGMVVTLLIRLAAIRWHLKLPTFALDENGR [P0AFP0]	6.04 h	5.6 h				2.95 h		9.77 h				
MLYGFSGVILQGALVTLELAISSVVLAVIIGLIGAGGKLSQNRLSGLIFEGYTTLIRGVPDLVLMLLIFYGLQIALNTVTEAMGVGQIDIDPMVAGIITLGFIYGAYFTETFRGAFMAVPKGHIEAATAFGFTRGQVFRRIMFPSMMRYALPGIGNNWQVILKSTALVSLLGLEDVVKATQLAGKSTWEPFYFAIVCGVIYLVFTTVSNGVLLFLERRYSVGVKRADL	5.69 ± 0.1 h	6.04 ± 0.29 h		6.66 ± 0.46 h	5.85 ± 0.34 h	3.09 ± 0.16 h	5.6235 ± 0.0025 h	11.5 ± 2.1 h	6.17 ± 0.47 h	12.8 ± 2.3 h	5.65 ± 0.36 h	11.2 ± 2.3 h
MLYIDKATILKFDLEMLKKHRRAIQFIAVLLFIVGLLCISFPFVSGDILSTVVGALLICSGIALIVGLFSNRSHNFWPVLSGFLVAVAYLLIGYFFIRAPELGIFAIAAFIAGLFCVAGVIRLMSWYRQRSMKGSWLQLVIGVLDIVIAWIFLGATPMVSVTLVSTLVGIELIFSAASLFSFASLFVKQQ [P0AET5]	5.35 ± 0.17 h	5.39 ± 0.49 h	5.44 ± 0.84 h	5.08 ± 0.17 h	6.6 ± 0.066 h	2.2 h		> 16 h	5.33 ± 0.29 h	10.1 h	5.5 ± 0.65 h	10.1 ± 1.1 h
MLYKGDTLYLDWLEDGIAELVFDAPGSVNKLDTATVASLGEAIGVLEQQSDLKGLLLRSNKAAFIVGADITEFLSLFLVPEEQLSQWLHFANSVFNRLEDLPVPTIAAVNGYALGGGCECVLATDYRLATPDLRIGLPETKLGIMPGFGGSVRMPRMLGADSALEIIAAGKDVGADQALKIGLVDGVVKAEKLVEGAKAVLRQAINGDLDWKAKRQPKLEPLKLSKIEATMSFTIAKGMVAQTAGKHYPAPITAVKTIEAAARFGREEALNLENKSFVPLAHTNEARALVGIFLNDQYVKGKAKKLTKDVETPKQAAVLGAGIMGGGIAYQSAWKGVPVVMKDINDKSLTLGMTEAAKLLNKQLERGKIDGLKLAGVISTIHPTLDYAGFDRVDIVVEAVVENPKVKKAVLAETEQKVRQDTVLASNTSTIPISELANALERPENFCGMHFFNPVHRMPLVEIIRGEKSSDETIAKVVAWASKMGKTPIVVNDCPGFFVNRVLFPYFAGFSQLLRDGADFRKIDKVMEKQFGWPMGPAYLLDVVGIDTAHHAQAVMAAGFPQRMQKDYRDAIDALFDANRFGQKNGLGFWRYKEDSKGKPKKEEDAAVEDLLAEVSQPKRDFSEEEIIARMMIPMVNEVVRCLEEGIIATPAEADMALVYGLGFPPFHGGAFRWLDTLGSAKYLDMAQQYQHLGPLYEVPEGLRNKARHNEPYYPPVEPARPVGDLKTA	4.12 ± 0.27 h	3.24 ± 0.056 h	3.02 ± 0.12 h	3.8 ± 0.82 h	3.27 ± 0.31 h	2.93 ± 0.14 h	4.89 ± 0.061 h	8.047 ± 0.056 h	3.34 ± 0.46 h	4.71 ± 0.23 h	5.3 ± 0.11 h	9.82 ± 0.77 h
MLYLTKISNAGSEFTENEQKIADFLQANVSELQSVSSRQMAKQLGISQSSIVKFAQKLGAQGFTELRMALIGEYSASREKTNATALHLHSSITSDDSLEVIARKLNREKELALEQTCALLDYARLQKIIEVISKAPFIQITGLGGSALVGRDLSFKLMKIGYRVACEADTHVQATVSQALKKGDVQIAISYSGSKKEIVLCAEAARKQGATVIAITSLTDSPLRRLAHFTLDTVSGETEWRSSSMSTRTAQNSVTDLLFVGLVQLNDVESLKMIQRSSELTQRLK	6.32 ± 0.32 h	5.62 ± 0.76 h	5.52 ± 0.44 h	5.93 ± 2.8 h	5.37 ± 0.52 h	3.04 ± 0.11 h	5.97 ± 0.46 h	12.7 ± 3 h	5.36 ± 0.48 h		5.74 h	12 ± 2 h
MMDSLRTAANSLVLKIIFGIIIVSFILTGVSGYLIGGGNNYAAKVNDQEISRGQFENAFNSERNRMQQQLGDQYSELAANEGYMKTLRQQVLNRLIDEALLDQYARELKLGISDEQVKQAIFATPAFQVDGKFDNSRYNGILNQMGMTADQYAQALRNQLTTQQLINGVAGTDFMLKGETDELAALVAQQRVVREATIDVNALAAKQPVTEQEIASYYEQNKNNFMTPEQFRVSYIKLDAATMQQPVSDADIQSYYDQHQDQFTQPQRTRYSIIQTKTEDEAKAVLDELNKGGDFAALAKEKSADIISARNGGDMGWLEDATIPDELKNAGLKEKGQLSGVIKSSVGFLIVRLDDIQPAKVKSLDEVRDDIAAKVKHEKALDAYYALQQKVSDAASNDTESLAGAEQAAGVKATQTGWFSKDNLPEELNFKPVADAIFNGGLVGENGAPGINSDIITVDGDRAFVLRISEHKPEAVKPLADVQEQVKALVQHNKAEQQAKVDAEKLLVDLKAGKGAEAMQAAGLKFGEPKTLSRSGRDPISQAAFALPLPAKDKPSYGMATDMQGNVVLLALDEVKQGSMPEDQKKAMVQGITQNNAQIVFEALMSNLRKEAKIKIGDALEQQ [P0ADY1]	6.92 ± 0.99 h	6.533 ± 0.039 h	5.89 ± 0.078 h	6.39 ± 0.26 h	6.15 ± 0.67 h	3.05 ± 0.23 h	5.96 ± 0.096 h	12.7 ± 1.2 h	6.17 ± 0.25 h	12.8 ± 1.7 h	5.92 ± 0.088 h	12.4 ± 0.2 h
MMEGQQHGEQLKRGLKNRHIQLIALGGAIGTGLFLGSASVIQSAGPGIILGYAIAGFIAFLIMRQLGEMVVEEPVAGSFSHFAYKYWGSFAGFASGWNYWVLYVLVAMAELTAVGKYIQFWYPEIPTWVSAAVFFVVINAINLTNVKVFGEMEFWFAIIKVIAVVAMIIFGGWLLFSGNGGPQATVSNLWDQGGFLPHGFTGLVMMMAIIMFSFGGLELVGITAAEADNPEQSIPKATNQVIYRILIFYIGSLAVLLSLMPWTRVTADTSPFVLIFHELGDTFVANALNIVVLTAALSVYNSCVYCNSRMLFGLAQQGNAPKALASVDKRGVPVNTILVSALVTALCVLINYLAPESAFGLLMALVVSALVINWAMISLAHMKFRRAKQEQGVVTRFPALLYPLGNWICLLFMAAVLVIMLMTPGMAISVYLIPVWLIVLGIGYLFKEKTAKAVKAH	5.89 ± 0.35 h	4.94 ± 0.16 h	5.65 h	4.684 ± 0.041 h	5.14 ± 0.68 h	2.98 h	5.81 ± 0.44 h	11.914 ± 0.0083 h	5.68 ± 1.1 h	9.07 ± 0.36 h	5.39 ± 0.41 h	10.1 ± 1.7 h
MMEILRGSPALSAFRINKLLARFQAARLPVHNIYAEYVHFADLNAPLNDDEHAQLERLLKYGPALASHAPQGKLLLVTPRPGTISPWSSKATDIAHNCGLQQVNRLERGVAYYIEAGTLTNEQWQQVTAELHDRMMETVFFALDDAEQLFAHHQPTPVTSVDLLGQGRQALIDANLRLGLALAEDEIDYLQDAFTKLGRNPNDIELYMFAQANSEHCRHKIFNADWVIDGEQQPKSLFKMIKNTFETTPDHVLSAYKDNAAVMEGSEVGRYFADHETGRYDFHQEPAHILMKVETHNHPTAISPWPGAATGSGGEIRDEGATGRGAKPKAGLVGFSVSNLRIPGFEQPWEEDFGKPERIVTALDIMTEGPLGGAAFNNEFGRPALNGYFRTYEEKVNSHNGEELRGYHKPIMLAGGIGNIRADHVQKGEINVGAKLVVLGGPAMNIGLGGGAASSMASGQSDADLDFASVQRDNPEMERRCQEVIDRCWQLGDANPILFIHDVGAGGLSNAMPELVSDGGRGGKFELREILSDEPGMSPLEIWCNESQERYVLAVAADQLPLFDELCKRERAPYAVIGEATEELHLSLHDRHFDNQPIDLPLDVLLGKTPKMTRDVQTLKAKGDALAREGITIADAVKRVLHLPTVAEKTFLVTIGDRSVTGMVARDQMVGPWQVPVANCAVTTASLDSYYGEAMAIGERAPVALLDFAASARLAVGEALTNIAATQIGDIKRIKLSANWMAAAGHPGEDAGLYEAVKAVGEELCPALGLTIPVGKDSMSMKTRWQEGNEEREMTSPLSLVISAFARVEDVRHTITPQLSTEDNALLLIDLGKGNNALGATALAQVYRQLGDKPADVRDVAQLKGFYDAIQALVAQRKLLAYHDRSDGGLLVTLAEMAFAGHCGIDADIATLGDDRLAALFNEELGAVIQVRAADREAVESVLAQHGLADCVHYVGQAVSGDRFVITANGQTVFSESRTTLRVWWAETTWQMQRLRDNPECADQEHQAKSNDADPGLNVKLSFDINEDVAAPYIATGARPKVAVLREQGVNSHVEMAAAFHRAGFDAIDVHMSDLLTGRTGLEDFHALVACGGFSYGDVLGAGEGWAKSILFNDRVRDEFATFFHRPQTLALGVCNGCQMMSNLRELIPGSELWPRFVRNTSDRFEARFSLVEVTQSPSLLLQGMVGSQMPIAVSHGEGRVEVRDAAHLAALESKGLVALRYVDNFGKVTETYPANPNGSPNGITAVTTESGRVTIMMPHPERVFRTVSNSWHPENWGEDGPWMRIFRNARKQLG	5.77 ± 0.51 h	4.8 ± 0.37 h	4.73 ± 0.32 h	5.07 ± 0.55 h	4.63 ± 0.36 h	3.03 ± 0.051 h	5.98 ± 0.39 h	10.4 ± 0.62 h	4.72 ± 0.081 h	8.05 ± 0.21 h	6.31 ± 0.075 h	11.5 ± 0.43 h
MMHRLNLNGYEPDRHHEAAVAFCIHAGTDELTSPVHQHRKGQLILALHGAITCTVENALWMVPPQYAVWIPGGVEHSNQVTANAELCFLFIEPSAVTMPTTCCTLKISPLCRELILTLANRTTTQRAEPMTRRLIQVLFDELPQQPQQQLHLPVSSHPKIRTMVEMMAKGPVEWGALGQWAGFFAMSERNLARLIVKETGLSFRQWRQQLQLIMALQGLVKGDTVQKVAHTLGYDSTTAFITMFKKGLGQTPGRYIARLTTVSPQSAKPDPRQ	4.97 ± 0.56 h											
